According to patent US20140308259A1 (University of Pennsylvania, published 2014):

B1: anti-B7H4 scFv clone 3#54 (scFv)
scFv: RPVLTQPPSAAGTPGQRVTISCSGSSSNIGSNYVYWYQQLPGMAPKLLIYTNNQRPSGVPGRFSGSKSGTSASLAISGLRSEDEADYYCAAWDDSLNGWVFGGGTELTVLGGSSRSSSSGGGGSGGGGQVQLQESGPGLVKPSETLSLTCNVSGRSVSSGFYWSWIRQRPGKGLEWVGSIYRSGLTYYNPSLKSRVTISVDTSKNQFSLKLSSVTAADTAVYYCARATPWYYYGMDVWGQGTTVTVSSFEGSEQ
B2: anti-B7H4 scFv clone 3#68 (scFv)
scFv: QPGLTQPPSASGTPGQRVTISCSGSSSNIGSNYVYWYQQFPGTAPKLLIYRNNQRPSGVPDRFSGSKSGTSASLAISGLRSEDEADYYCAAWDDSLSVWVFGGGTKVTVLGGSSRSSSSGGSGSGGGGQVTLKESGAEVKNPGSSVKVSCKASGGTFSSYAISWLRQAPGQGLEWMGWINPNSGGSDYAQRFQGRVTMTRDTSINTVYMELSRLRSDDTAVYYCARVEKRGYYYGMDVWGQGTMVTVSSFEGSEQ

Target: T1, human B7-H4 at the cell surface (human, UniProt Q7Z7D3 25-282)
T1 sequence (looked up): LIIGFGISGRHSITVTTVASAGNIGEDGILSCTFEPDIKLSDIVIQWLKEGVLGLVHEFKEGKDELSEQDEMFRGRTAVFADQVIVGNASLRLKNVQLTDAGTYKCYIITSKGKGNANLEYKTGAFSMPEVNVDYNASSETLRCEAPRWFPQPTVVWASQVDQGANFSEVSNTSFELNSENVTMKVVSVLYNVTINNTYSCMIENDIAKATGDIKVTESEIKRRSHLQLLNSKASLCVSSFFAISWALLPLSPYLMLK
Assay: cell-based or functional assay

Binder	IFN-γ production of MART-1 TCR T cells in presence of B7-H4+ TAMs
B1	> 2 folds
B2	> 2 folds
